T1: cyno IL-6 (cynomolgus monkey, UniProt P79341 28-212, limits assumed)
T1 sequence (looked up): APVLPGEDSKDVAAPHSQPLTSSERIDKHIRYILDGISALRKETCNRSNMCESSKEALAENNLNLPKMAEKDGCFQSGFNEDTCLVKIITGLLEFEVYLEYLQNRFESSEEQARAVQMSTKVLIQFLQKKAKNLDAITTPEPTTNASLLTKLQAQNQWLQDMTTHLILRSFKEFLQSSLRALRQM

B1: F027200215 (bispecific antibody)
chain: EVQLVESGGGVVQPGGSLRLSCAASGIIFSINAMGWYRQAPGKQRELVADIFPFGSTEYADSVKGRFTISRDNAKNTVYLQMNSLRPEDTALYYCHSYDPRGDDYWGQGTLVTVSSGGGGSGGGSDVQLVESGGGVVQPGGSLRLSCAASGRTFSNYAMAWFRQAPGKEREFVAVISYAGGRTYYADSVKGRFTISRDNAKNTVYLQMNSLRPEDTALYYCAAVDSPLIATHPRGYDYWGQGTLVTVSSGGGGSGGGSEVQLVESGGGVVQPGGSLRLSCAASGFTFRSFGMSWVRQAPGKGPEWVSSISGSGSDTLYADSVKGRFTISRDNSKNTLYLQMNSLRPEDTALYYCTIGGSLSRSSQGTLVTVSSGGGGSGGGSEVQLVESGGGVVQPGGSLRLSCTASGFTFSTADMGWFRQAPGKGREFVARISGIDGTTYYDEPVKGRFTISRDNSKNTVYLQMNSLRPEDTALYYCRSPRYADQWSAYDYWGQGTLVKVSS
B2: F027200168 (bispecific antibody)
chain: EVQLVESGGGVVQPGGSLRLSCAASGIIFSINAMGWYRQAPGKQRELVADIFPFGSTEYADSVKGRFTISRDNAKNTVYLQMNSLRPEDTALYYCHSYDPRGDDYWGQGTLVTVSSGGGGSGGGSEVQLVESGGGVVQPGGSLRLSCAASGFTFRSFGMSWVRQAPGKGPEWVSSISGSGSDTLYADSVKGRFTISRDNSKNTLYLQMNSLRPEDTALYYCTIGGSLSRSSQGTLVTVSSGGGGSGGGSEVQLVESGGGVVQPGGSLRLSCAASGRTFSSYVMGWFRQAPGKEREFVSTINWAGSRGYYADSVKGRFTISRDNAKNTVYLQMNSLRPEDTALYYCAASAGGFLVPRVGQGYDYWGQGTLVTVSSGGGGSGGGSEVQLVESGGGVVQPGGSLRLSCTASGFTFSTADMGWFRQAPGKGREFVARISGIDGTTYYDEPVKGRFTISRDNSKNTVYLQMNSLRPEDTALYYCRSPRYADQWSAYDYWGQGTLVKVSS
B3: F027200157 (bispecific antibody)
chain: EVQLVESGGGVVQPGGSLRLSCTASGFTFSTADMGWFRQAPGKGREFVARISGIDGTTYYDEPVKGRFTISRDNSKNTVYLQMNSLRPEDTALYYCRSPRYADQWSAYDYWGQGTLVKVSSGGGGSGGGSEVQLVESGGGVVQPGGSLRLSCAASGFTFRSFGMSWVRQAPGKGPEWVSSISGSGSDTLYADSVKGRFTISRDNSKNTLYLQMNSLRPEDTALYYCTIGGSLSRSSQGTLVTVSSGGGGSGGGSEVQLVESGGGVVQPGGSLRLSCAASGIIFSINAMGWYRQAPGKQRELVADIFPFGSTEYADSVKGRFTISRDNAKNTVYLQMNSLRPEDTALYYCHSYDPRGDDYWGQGTLVTVSSGGGGSGGGSEVQLVESGGGVVQPGGSLRLSCAASGFTLAYYAIGWFRQAPGKEREGVSCISGSVGTTYYADSVKGRFTISRDNAKNTVYLQMNSLRPEDTALYYCVRSSWFDCGVQGRDLGNEYDYRGQGTLVTVSS
B4: F027200154 (bispecific antibody)
chain: EVQLVESGGGVVQPGGSLRLSCTASGFTFSTADMGWFRQAPGKGREFVARISGIDGTTYYDEPVKGRFTISRDNSKNTVYLQMNSLRPEDTALYYCRSPRYADQWSAYDYWGQGTLVKVSSGGGGSGGGSEVQLVESGGGVVQPGGSLRLSCAASGFTFRSFGMSWVRQAPGKGPEWVSSISGSGSDTLYADSVKGRFTISRDNSKNTLYLQMNSLRPEDTALYYCTIGGSLSRSSQGTLVTVSSGGGGSGGGSEVQLVESGGGVVQPGGSLRLSCAASGIIFSINAMGWYRQAPGKQRELVADIFPFGSTEYADSVKGRFTISRDNAKNTVYLQMNSLRPEDTALYYCHSYDPRGDDYWGQGTLVTVSSGGGGSGGGSDVQLVESGGGVVQPGGSLRLSCAASGRTFSNYAMAWFRQAPGKEREFVAVISYAGGRTYYADSVKGRFTISRDNAKNTVYLQMNSLRPEDTALYYCAAVDSPLIATHPRGYDYWGQGTLVTVSS

Experiments:
Experiment in all cases: cell-based or functional assay
cyno TNF-α = cyno TNF-α (cynomolgus monkey, UniProt P79337 77-233)
cyno IL-6 = biological target: T1, cyno IL-6
human TNF-α = human TNF-α (human, UniProt P01375 77-233)
human IL-6 = human IL-6 (human, UniProt P05231 30-212)

cyno TNF-α, sequence (P79337 77-233 limits assumed): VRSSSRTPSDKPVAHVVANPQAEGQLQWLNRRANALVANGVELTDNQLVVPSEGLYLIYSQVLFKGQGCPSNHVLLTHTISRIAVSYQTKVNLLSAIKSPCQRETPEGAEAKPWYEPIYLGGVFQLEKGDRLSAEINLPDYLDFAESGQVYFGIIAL
human TNF-α, sequence (P01375 77-233 limits assumed): as the sequence (P79337 77-233 limits assumed) above, with V37L, T44R, N72T, L138R counted along it

Binder | Ratio IC50 cyno TNFα/hTNFα (cyno TNF-α) | Ratio IC50 cyno IL-6/hIL-6 (cyno IL-6) | IC50 hTNF-α Nfkb assay (human TNF-α) | IC50 hIL-6 TF1 proliferation assay (human IL-6)
B1 | 2.7 ratio | 2 ratio | 0.239 nM | 0.302 nM
B2 | 3.3 ratio | 1.6 ratio | 0.14 nM | 0.966 nM
B3 | 4 ratio | 7.1 ratio | 0.124 nM | 3.33 nM
B4 | 2.8 ratio | 2.1 ratio | 0.164 nM | 0.415 nM
